Measured values published in patent US20080305522A1 (MITSUKAN GROUP, published 2008).

What was measured:
[1] = target: T1, polypeptide NBS (neoculin basic subunit), purified from the fruit of Curculigo latifolia (Curculigo latifolia, UniProt P19667 23-136); experiment: SDS-PAGE under reducing and non-reducing conditions, CBB staining, native neoculin
T1 construct: Subunit of native neoculin, without a sugar chain; It has 115 residues: curculin B plus one extra C-terminal Gly; also called 11 kDa subunit
T1 sequence: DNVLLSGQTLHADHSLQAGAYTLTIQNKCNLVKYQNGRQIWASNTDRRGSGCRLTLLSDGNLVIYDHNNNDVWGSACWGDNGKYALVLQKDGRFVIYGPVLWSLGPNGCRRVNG
Protocol: 2.5 μg of the purified neoculin powder obtained above in (1) to (3) was subjected to SDS-PAGE under reducing conditions or non-reducing conditions at a gel concentration of 15% and subsequently to CBB staining. […] Thus, the individual subunits were designated as neoculin acidic subunit (NAS) and neoculin basic subunit (NBS).

[2] = target: T2, recombinant NBS secreted by Aspergillus oryzae NS-NAB2 (three Gly residues before the N terminus) (Curculigo latifolia, UniProt P19667 23-136); experiment: phenyl hydrophobic column fractions, SDS-PAGE under reducing/non-reducing conditions and western blotting
T2 construct: Expressed as an alpha-amylase fusion and cleaved at Lys-Arg by a KEX2-like protease; also called 11 kDa band of recombinant neoculin
T2 sequence: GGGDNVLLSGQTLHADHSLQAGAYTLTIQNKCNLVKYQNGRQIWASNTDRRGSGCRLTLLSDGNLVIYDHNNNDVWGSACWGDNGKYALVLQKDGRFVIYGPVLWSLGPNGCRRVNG

[3] = target: the molecule itself; experiment: as above

Row | Binder | binding result [1] | binding result [2] | binding result [3]
1 | polypeptide NAS (neoculin acidic subunit), purified from the fruit of Curculigo latifolia (other, N-linked sugar chain, mannose/N-acetylglucosamine/fucose/xylose at a ratio of about 3/2/1/1; binding site 'may possibly be asparagine-81' of SEQ ID NO.2, Subunit of native neoculin; It separates from NBS only under reducing conditions in SDS-PAGE; also called 13 kDa subunit) DSVLLSGQTLYAGHSLTSGSYTLTIQNNCNLVKYQHGRQIWASDTDGQGSQCRLTLRSDGNLIIYDDNNMVVWGSDCWGNNGTYALVLQQDGLFVIYGPVLWPLGLNGCRSLN | binds | – | –
2 | recombinant NAS secreted by Aspergillus oryzae NS-NAB2 (three Gly residues before the N terminus) (other, Expressed as an alpha-amylase fusion and cleaved at Lys-Arg by a KEX2-like protease; Glycosylation in the koji mold is not described; also called 13 kDa band of recombinant neoculin) GGGDSVLLSGQTLYAGHSLTSGSYTLTIQNNCNLVKYQHGRQIWASDTDGQGSQCRLTLRSDGNLIIYDDNNMVVWGSDCWGNNGTYALVLQQDGLFVIYGPVLWPLGLNGCRSLN | – | binds | binds
